Results published in patent US8394607B2, “Anti-CD22 antibodies and immunoconjugates and methods of use” (Genentech, Inc., priority 2006, dated 2013).

Assays:
[1] = target: T1, human CD22-beta-ECD-His tagged soluble antigen (Homo sapiens, UniProt P20273, A486R/Y639H); test: BIACORE surface plasmon resonance binding to soluble CD22 ECD; conditions: BIACORE 3000, 25° C., antibody coupled to chip, soluble CD22 ECD injected; one-to-one Langmuir model
T1 sequence (P20273 22-681 A486R/Y639H): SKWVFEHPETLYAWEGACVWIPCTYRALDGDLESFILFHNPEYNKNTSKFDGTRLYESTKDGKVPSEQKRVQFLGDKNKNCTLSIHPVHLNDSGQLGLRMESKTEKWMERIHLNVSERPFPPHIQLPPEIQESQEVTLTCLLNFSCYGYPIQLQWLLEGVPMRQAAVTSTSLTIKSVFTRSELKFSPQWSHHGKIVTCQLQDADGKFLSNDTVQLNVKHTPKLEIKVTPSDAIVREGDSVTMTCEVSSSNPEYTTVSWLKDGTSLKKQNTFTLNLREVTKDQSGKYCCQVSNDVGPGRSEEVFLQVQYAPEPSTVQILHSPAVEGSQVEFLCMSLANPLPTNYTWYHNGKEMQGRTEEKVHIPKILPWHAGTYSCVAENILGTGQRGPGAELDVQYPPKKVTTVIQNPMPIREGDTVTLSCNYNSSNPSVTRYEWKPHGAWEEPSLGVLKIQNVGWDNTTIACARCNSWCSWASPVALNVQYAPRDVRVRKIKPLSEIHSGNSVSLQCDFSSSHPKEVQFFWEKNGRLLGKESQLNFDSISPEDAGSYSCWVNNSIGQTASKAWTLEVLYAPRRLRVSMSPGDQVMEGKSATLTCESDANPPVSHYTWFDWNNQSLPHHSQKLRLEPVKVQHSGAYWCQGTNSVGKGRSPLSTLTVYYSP
Method: The binding affinity of murine and humanized 10F4 antibody for soluble CD22 extracellular domain (ECD) was determined by surface plasmon resonance measurement using a BIACORE® 3000 system (Biacore, Inc., Piscataway, N.J.). Briefly, carboxymethylated dextran biosensor chips (CMS, Biacore Inc.) were activated with N-ethyl-N′-(3-dimethylaminopropyl)-carbodiimide hydrochloride (EDC) and N-hydroxysuccinimide (NHS) according to the supplier's instructions. These activated chips were coated with anti-CD22 IgG1 antibody 10F4 (murine or humanized) by dilution to 5 μg/ml with 10 mM sodium acetate, pH 4.8, before injection at a flow rate of 5 μl/minute to achieve approximately 500 response units (RU) of coupled antibody. Next, 1M ethanolamine was injected to block unreacted groups. […] Association rates (kon) and dissociation rates (koff) were calculated using a simple one-to-one Langmuir binding model (BIAevaluation Software version 3.2). The equilibrium dissociation constant (Kd) was calculated as the ratio koff/kon. Anti-CD22 antibody, RFB4, was used as a control (Chemicon International, Inc., Temecula, Calif., catalog no. CBL147).

human CD22 = test: ELISA plate assays and FACS cell-based assays for selection of hybridoma antibodies; assay type: binding
Method: Murine monoclonal antibodies capable of specifically binding human CD22 was prepared. BALB/c female mice, age six weeks, were immunized in their foot pads with purified human CD22 his-8 tagged extracellular domain lacking domains 3 and 4 (SEQ ID NO:30 (ECD) plus the sequence […] at the C-terminus) or CD22 his-8 tagged extracellular domain comprising domains 1-7 (SEQ ID NO:28 (ECD) plus the above His sequence tag) in Ribi's adjuvant. Subsequent injections were performed in the same manner at one and three weeks after the initial immunizations. […]
ELISA-based assays: Anti-CD22 antibody screening by ELISA is performed as follows, with all incubations done at room temperature. […] Data is obtained by reading the plates in an automated ELISA plate reader at an absorbance of 490 nm.
CHO cells expressing human CD22 on their surface were incubated with anti-CD22 hybridoma supernatant in 100 μl FACS buffer (0.1% BSA, 10 mM sodium azide in PBS, pH 7.4) for 30 minutes at 4° C. followed by one wash with FACS buffer. The amount of anti-CD22 binding was determined by incubating an aliquot of the antibody/cell mixture with a polyclonal FITC conjugated goat or rabbit anti-mouse IgG (Accurate Chem. Co., Westbury, N.Y.) (for murine test antibodies) or goat or rabbit anti-human IgG (for humanized antibodies) for 30 minutes at 4° C. followed by three washes with FACS buffer.

[2] = target: T2, human CD22 (CD22beta) lacking domain 1, domain 2, or domains 3 and 4 (Homo sapiens, UniProt P20273); test: Epitope mapping by flow cytometry on CHO cells expressing CD22 domain deletion variants; assay type: binding; conditions: flow cytometry, CHO cells
T2 construct: expressed in transfected cells
T2 sequence (P20273 22-670 isoform P20273-2): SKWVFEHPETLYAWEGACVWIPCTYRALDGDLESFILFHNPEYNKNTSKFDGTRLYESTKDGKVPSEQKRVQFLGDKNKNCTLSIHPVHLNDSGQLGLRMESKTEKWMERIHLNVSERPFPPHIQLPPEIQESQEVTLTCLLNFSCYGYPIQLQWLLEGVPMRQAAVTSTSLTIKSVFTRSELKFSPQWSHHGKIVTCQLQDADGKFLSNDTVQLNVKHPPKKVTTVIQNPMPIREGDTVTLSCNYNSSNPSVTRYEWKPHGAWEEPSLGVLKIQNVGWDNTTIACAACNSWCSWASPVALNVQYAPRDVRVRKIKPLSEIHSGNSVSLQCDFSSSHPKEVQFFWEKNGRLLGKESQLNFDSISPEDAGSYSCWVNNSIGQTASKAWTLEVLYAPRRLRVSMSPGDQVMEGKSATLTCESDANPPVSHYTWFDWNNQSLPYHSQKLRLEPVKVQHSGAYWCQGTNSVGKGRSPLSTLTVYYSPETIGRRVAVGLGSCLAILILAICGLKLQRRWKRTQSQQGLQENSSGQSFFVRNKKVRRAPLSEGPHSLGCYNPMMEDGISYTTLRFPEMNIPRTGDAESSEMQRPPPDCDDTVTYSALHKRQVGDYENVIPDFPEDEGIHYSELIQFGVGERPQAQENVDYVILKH
Method: (§1) The epitopes of CD22 to which 10F4.4.1 and 5E8.1.8 antibodies bound were determined according to the following procedures. CD22 sequences lacking various of the seven immunoglobulin-like domains of the major CD22 isoform (CD22beta) were cloned and transformed into cells for stable expression. For example, CD22 variants lacking domain 1 (Δ1), domain 2 (Δ2), or domains 3 and 4 (Δ3,4) were cloned, transformed into CHO cells, and expressed on the cells. Control cells expressed CD22beta. Deletions were performed using Stratagene QuikChange XL™ reagent kit. Deletion of domain 1 was performed by deletion of amino acids 22-138; deletion of domain 2 was performed by deletion of amino acids 139-242; and deleted domains 3 and 4 were available as the minor isoform CD22alpha (deletion of amino acids 241-417). All amino acid numbers refer to the numbering of full length precursor CD22beta by Wilson, G. L. et al. (see FIG. 1 in Wilson, G. L. et al., J. Exp. Med. 173:137-146 (1991)). FIG. 14 is a diagram of the deleted domains. Binding was determined by flow cytometry using an isotype control. Binding of 10F4.4.1 was detected using goat anti-mouse IgG Alexa 488. Binding of 5E8.1.8 was detected using biotinylated goat anti-mouse IgG plus streptavidin PE. […] Neither bound CD22 lacking domain 1 or domain 2, and both bound CD22 comprising domains 1 and 2, but lacking domains 3 and 4.

[3] = tested on: human CD22 (CD22beta) lacking domain 1, domain 2, or domains 3 and 4; test: as above; assay type: binding
Method: as §1

Chain of human CD22 (P20273 20-240 limits assumed): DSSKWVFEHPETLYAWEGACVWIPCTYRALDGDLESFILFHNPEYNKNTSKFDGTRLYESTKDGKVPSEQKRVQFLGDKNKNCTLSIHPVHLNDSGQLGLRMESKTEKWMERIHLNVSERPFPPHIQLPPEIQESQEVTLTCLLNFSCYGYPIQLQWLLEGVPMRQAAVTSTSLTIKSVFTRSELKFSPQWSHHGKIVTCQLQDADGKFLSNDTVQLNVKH

B1: Mu 10F4.4.1: murine anti-human CD22 monoclonal antibody, hybridoma ATCC PTA-7621 (antibody, V domains shown)
VH: QVQLQQSGPELVKPGASVKISCKASGYEFSRSWMNWVKQRPGQGREWIGRIYPGDGDTNYSGKFKGKATLTADKSSSTAYMQLSSLTSVDSAVYFCARDGSSWDWYFDVWGAGTTVTVSS
VL: DILMTQTPLSLPVSLGDQASISCRSSQSIVHSNGNTFLEWYLQKPGQSPKLLIYKVSNRFSGVPDRFSGSGSGTDFTLKISRVEAEDLGVYYCFQGSQFPYTFGGGTKVEIK
koff/10^−4 [1]: 2.8 | kon/10^5 [1]: 0.19 | specific binding to human CD22 (human CD22): bind specifically to human CD22 | binding to CD22 comprising domains 1 and 2 but lacking domains 3 and 4 [2]: both bound | binding to CD22 lacking domain 1 or domain 2 ([3]; flow cytometry, CHO cells): Neither bound | epitope (CD22 domains bound) ([3]; within amino acid 22 to amino acid 240 of SEQ ID NO:27): domains 1 and 2 of human CD22
